Measurements reported in publication PMC11439917 (Nature Communications, 2024).

Biological target: human full-length LRRK2 (leucine-rich repeat kinase 2), purified (human, UniProt Q5S007 1-2527)
Experiment: cryo-EM structure

human full-length LRRK2 (leucine-rich repeat kinase 2), purified, sequence (Q5S007 whole entry): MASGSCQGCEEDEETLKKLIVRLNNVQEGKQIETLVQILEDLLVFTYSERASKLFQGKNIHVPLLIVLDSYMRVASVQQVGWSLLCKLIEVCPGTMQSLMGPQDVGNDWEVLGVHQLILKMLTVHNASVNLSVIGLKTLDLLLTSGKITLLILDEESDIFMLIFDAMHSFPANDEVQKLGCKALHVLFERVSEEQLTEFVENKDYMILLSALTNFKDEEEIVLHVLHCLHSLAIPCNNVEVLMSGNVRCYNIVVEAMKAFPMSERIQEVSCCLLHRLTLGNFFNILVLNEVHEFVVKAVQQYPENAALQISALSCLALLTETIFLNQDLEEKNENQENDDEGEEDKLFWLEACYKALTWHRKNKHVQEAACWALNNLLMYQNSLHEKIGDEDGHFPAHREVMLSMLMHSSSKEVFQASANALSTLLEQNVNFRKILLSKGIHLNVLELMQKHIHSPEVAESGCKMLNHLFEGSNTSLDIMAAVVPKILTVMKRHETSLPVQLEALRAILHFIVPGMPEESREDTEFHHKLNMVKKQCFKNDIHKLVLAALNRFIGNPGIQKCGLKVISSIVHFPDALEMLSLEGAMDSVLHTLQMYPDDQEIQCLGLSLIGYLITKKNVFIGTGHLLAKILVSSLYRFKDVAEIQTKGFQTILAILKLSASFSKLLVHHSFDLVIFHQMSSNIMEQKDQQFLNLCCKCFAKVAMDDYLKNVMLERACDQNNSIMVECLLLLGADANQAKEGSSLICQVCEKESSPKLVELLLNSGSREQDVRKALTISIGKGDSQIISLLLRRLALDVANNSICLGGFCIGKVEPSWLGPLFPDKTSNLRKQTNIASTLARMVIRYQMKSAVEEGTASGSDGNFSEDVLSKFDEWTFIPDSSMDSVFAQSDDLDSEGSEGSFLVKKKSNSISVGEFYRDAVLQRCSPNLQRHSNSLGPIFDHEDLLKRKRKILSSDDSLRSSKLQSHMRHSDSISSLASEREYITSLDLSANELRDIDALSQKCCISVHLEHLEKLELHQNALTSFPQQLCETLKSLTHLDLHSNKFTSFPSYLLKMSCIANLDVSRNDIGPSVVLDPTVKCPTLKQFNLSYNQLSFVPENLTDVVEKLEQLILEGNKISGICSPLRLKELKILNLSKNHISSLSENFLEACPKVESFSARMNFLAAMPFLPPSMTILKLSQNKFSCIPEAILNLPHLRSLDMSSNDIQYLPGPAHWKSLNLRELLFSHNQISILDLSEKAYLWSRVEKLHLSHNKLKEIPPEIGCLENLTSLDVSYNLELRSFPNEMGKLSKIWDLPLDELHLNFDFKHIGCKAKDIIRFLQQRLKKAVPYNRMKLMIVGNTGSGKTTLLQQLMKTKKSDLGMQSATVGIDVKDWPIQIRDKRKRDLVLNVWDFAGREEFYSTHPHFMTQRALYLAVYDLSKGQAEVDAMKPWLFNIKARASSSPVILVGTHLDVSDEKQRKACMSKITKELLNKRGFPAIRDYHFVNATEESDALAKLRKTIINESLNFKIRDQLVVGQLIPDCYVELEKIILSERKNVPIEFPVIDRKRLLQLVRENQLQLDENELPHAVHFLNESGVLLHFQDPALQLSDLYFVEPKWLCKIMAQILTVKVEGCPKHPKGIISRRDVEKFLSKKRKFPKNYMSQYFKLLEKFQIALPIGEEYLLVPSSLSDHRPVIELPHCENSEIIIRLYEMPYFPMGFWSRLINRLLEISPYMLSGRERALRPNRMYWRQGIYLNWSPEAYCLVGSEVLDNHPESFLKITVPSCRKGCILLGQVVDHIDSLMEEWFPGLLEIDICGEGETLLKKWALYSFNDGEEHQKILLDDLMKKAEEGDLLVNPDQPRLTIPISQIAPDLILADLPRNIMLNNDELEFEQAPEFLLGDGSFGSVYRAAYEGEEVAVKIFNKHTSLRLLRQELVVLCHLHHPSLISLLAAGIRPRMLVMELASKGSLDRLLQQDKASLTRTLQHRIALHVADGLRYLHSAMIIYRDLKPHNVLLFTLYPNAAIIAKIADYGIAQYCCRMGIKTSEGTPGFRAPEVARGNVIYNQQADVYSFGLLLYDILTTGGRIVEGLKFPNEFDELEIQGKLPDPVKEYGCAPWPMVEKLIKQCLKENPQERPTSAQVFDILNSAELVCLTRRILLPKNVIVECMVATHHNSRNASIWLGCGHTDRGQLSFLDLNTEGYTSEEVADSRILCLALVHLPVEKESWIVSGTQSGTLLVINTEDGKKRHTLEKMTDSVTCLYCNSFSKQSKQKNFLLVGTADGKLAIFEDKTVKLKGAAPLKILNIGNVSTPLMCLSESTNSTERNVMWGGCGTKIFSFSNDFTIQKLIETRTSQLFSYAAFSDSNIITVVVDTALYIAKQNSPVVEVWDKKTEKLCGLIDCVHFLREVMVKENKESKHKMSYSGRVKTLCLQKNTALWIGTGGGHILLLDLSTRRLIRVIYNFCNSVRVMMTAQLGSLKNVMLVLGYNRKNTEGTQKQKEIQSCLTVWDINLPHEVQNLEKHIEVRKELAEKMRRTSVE

binding result: binds
B1: human RAB12 (residues 36-211) Q101L, GppNHp-bound (domain or fragment)
chain: PRPADFKLQVIIIGSRGVGKTSLMERFTDDTFCEACKSTVGVDFKIKTVELRGKKIRLQIWDTAGLERFNSITSAYYRSAKGIILVYDITKKETFDDLPKWMKMIDKYASEDAELLLVGNKLDCETDREITRQQGEKFAQQITGMRFCEASAKDNFNVDEIFLKLVDDILKKMPLD
